Reference: patent US20160177307

Assays:
[1] = target: PDGF-BB (platelet-derived growth factor BB) (Homo sapiens) (UniProt P01127); assay: competition
[2] = system: T1, VEGF-165 (Homo sapiens), P15692-4; assay: filter
T1 sequence: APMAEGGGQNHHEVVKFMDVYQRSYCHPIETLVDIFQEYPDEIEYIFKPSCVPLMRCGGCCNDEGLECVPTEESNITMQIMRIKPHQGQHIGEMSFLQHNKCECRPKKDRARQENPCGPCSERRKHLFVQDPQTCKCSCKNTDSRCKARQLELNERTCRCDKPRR

[3] = system: T2, VEGF-121 (Homo sapiens), P15692-9; assay: filter
T2 sequence: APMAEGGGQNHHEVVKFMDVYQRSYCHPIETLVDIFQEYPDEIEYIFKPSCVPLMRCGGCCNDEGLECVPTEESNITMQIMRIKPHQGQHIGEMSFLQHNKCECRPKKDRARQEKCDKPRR

[4] = system: T3, VEGF-164 (Rattus norvegicus), P16612-2; assay: filter; conditions: P=Nap-dU
T3 sequence: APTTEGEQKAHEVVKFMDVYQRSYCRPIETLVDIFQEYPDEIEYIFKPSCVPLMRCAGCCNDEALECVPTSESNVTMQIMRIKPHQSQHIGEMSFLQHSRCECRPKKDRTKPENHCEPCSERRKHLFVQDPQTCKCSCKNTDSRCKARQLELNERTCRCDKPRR

PDGF-AB = PDGF-AB (UniProt P04085+P01127); assay: filter
[5] = target: PDGF-BB (platelet-derived growth factor BB) (Homo sapiens) (UniProt P01127); assay: filter
[6] = BndU at 1,2,7,8,16,17,18,20, Heg at 5, 2'-OMe A3,A11,A21,G24
[7] = Bn-dU, Heg linker, 2'-OMe A3, A11, A19, A21, G24
[8] = Z BndU, P NapdU, 2'-OMe at superscript-1 positions, C3 spacers, three Heg linkers

PDGF-AB, sequence (P01127 82-190, chain 2 of 2, other chains not shown): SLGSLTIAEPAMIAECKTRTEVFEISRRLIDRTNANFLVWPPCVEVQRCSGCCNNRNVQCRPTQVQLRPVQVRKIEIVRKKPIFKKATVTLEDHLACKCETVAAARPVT
PDGF-BB (platelet-derived growth factor BB) (Homo sapiens), sequence (P01127 82-190): as the sequence (P01127 82-190, chain 2 of 2, other chains not shown) above

Work on CGACAGCATGTATGCACATCT [5169-4_188] yielded a Ki ([1]; as 5169-4_146 plus PS 3' of 4,9,10,11,12, 3'-idT, competition with 32P ligand, SB18T, 37 C) of 0.0086 nM.

Work on “CGACAGCATGTATGCACATCTCGACAGCATGTATGCACATCT [5169-4_134]” yielded a Ki ([1]; Nap-dU, head-to-tail dimer, no linker) of 0.028 nM.

“GCCGTTCAAGTGCTTGTAGGATTTAAATGGA [4867-31_58]” was tested, and the Kd ([2]; NapdU at P) was 0.1 nM, the Kd ([3]; NapdU at P) was 0.15 nM and the Kd [4] was 0.21 nM.

“GTTCAAGTGCTTGTAGGATTTAAATGGA [4867-31_61]” showed a Kd ([2]; NapdU at P) of 2.9 nM, a Kd ([3]; NapdU at P) of 33 nM and a Kd [4] of 13 nM.

In the case of “TCAATCAGCCGTTCAAGTGCTTGTAGGATTTAAAT [4867-31_25]”, the Kd ([2]; NapdU at P) is reported as 26 nM, the Kd ([3]; NapdU at P) is reported as 70 nM and the Kd [4] is reported as 16 nM.

With “TCAATCAGCCGTTCAAGTGCTTGTAGGATTTAAATG [4867-31_24]” the Kd ([2]; NapdU at P) was 2.8 nM, the Kd ([3]; NapdU at P) was 36 nM and the Kd [4] was 4.2 nM.

Sequence “TCAATCAGCCGTTCAAGTGCTTGTAGGATTTAAATGG [4867-31_23]” has a Kd ([2]; NapdU at P) of 0.3 nM, a Kd ([3]; NapdU at P) of 1.3 nM and a Kd [4] of 0.66 nM.

“TCAATCAGCCGTTCAAGTGCTTGTAGGATTTAAATGGA [4867-31_22]” was tested, and the Kd ([2]; NapdU at P) was 0.26 nM, the Kd ([3]; NapdU at P) was 0.82 nM and the Kd [4] was 0.54 nM.

Sequence “TCAGCCGTTCAAGTGCTTGTAGGATTTAAATGGA [4867-31_41]” has a Kd ([2]; P=Nap-dU) of 0.13 nM, a Kd ([3]; P=Nap-dU) of 0.63 nM and a Kd [4] of 0.08 nM.

“TCAGCCGTTCAAGTGCTTGTAGGATTTAAATGGAAT [4867-31_29]” showed a Kd ([2]; P=Nap-dU) of 0.13 nM, a Kd ([3]; P=Nap-dU) of 0.96 nM and a Kd [4] of 0.08 nM.

“TTACGACTACGTTACACGCGTTTATAGC [4149-8_39]” showed a Kd (PDGF-AB; BndU at 1,2,8,12,13,21,22,23,25, rest DNA) of 0.0476 nM and a Kd ([5]; BndU at 1,2,8,12,13,21,22,23,25, rest DNA, SB18T, 37 C, Table 18 gives 87.5 pM) of 0.11 nM.

Sequence TTACGTTACACGCGTTTATAGCG [4149-8_130] has a Kd (PDGF-AB; [6]) of 0.141 nM and a Kd [5, 6] of 0.0759 nM.

TTACGTTACACGCGTTTATAGCG [4149-8_273] showed a Kd (PDGF-AB; [7]) of 0.189 nM and a Kd [5, 7] of 0.0614 nM.

For “TTACGTTACACGCGTTTATAGCGCCGTTCAAGTGCTTTAGATTTAAATG [4149-8_318]”, the Kd ([2]; Bn-dU, Nap-dU, C3, 1 Heg linker, 2'-OMe, VEGF) was 0.27 nM, the Kd (PDGF-AB; PDGF-1Heg-VEGF, NapdU, BndU) was 0.0818 nM and the Kd ([5]; PDGF-1Heg-VEGF, NapdU, BndU) was 0.0431 nM. The Kd ([3]; PDGF-1Heg-VEGF, NapdU, BndU) was 2.47 nM.

“TTACGTTACACGCGTTTATAGCGCCGTTCAAGTGCTTTAGATTTAAATG [4149-8_319]” gave a Kd ([2]; Bn-dU, Nap-dU, C3, 2 Heg linker, 2'-OMe, VEGF) of 0.125 nM, a Kd (PDGF-AB; PDGF-2Heg-VEGF, NapdU, BndU) of 0.0302 nM and a Kd ([5]; PDGF-2Heg-VEGF, NapdU, BndU) of 0.0242 nM. The Kd ([3]; PDGF-2Heg-VEGF, NapdU, BndU) was 1.07 nM.

“TTACGTTACACGCGTTTATAGCGCCGTTCAAGTGCTTTAGATTTAAATG [4149-8_320]” gave a Kd ([2]; PDGF-3Heg-VEGF, NapdU, BndU) of 0.0768 nM, a Kd (PDGF-AB; PDGF-3Heg-VEGF, NapdU, BndU) of 0.0493 nM and a Kd [5, 8] of 0.015 nM. It also gave a Kd [3, 8] of 0.422 nM.

“TTACGTTACCGCGTTTATAGCGCCGTTCAAGTGCTTGTAGGATTTAAATGG [4149-8_401 (PDGF_379-HHH-VEGF_192)]” gave a Kd ([2]; Z BndU, P NapdU, M MBndU, superscript 1 2'-OMe, C3 spacer, Heg linkers, 5'-amine, Table 20 gives 2.77E-10) of 0.025 nM, a Kd (PDGF-AB; Z BndU, P NapdU, M MBndU, superscript 1 2'-OMe, C3 spacer, Heg linkers, 5'-amine) of 0.193 nM and a Kd ([5]; Z BndU, P NapdU, M MBndU, superscript 1 2'-OMe, C3 spacer, Heg linkers, 5'-amine, Table 20 gives 1.51E-11) of 0.0056 nM. The Kd ([3]; Z BndU, P NapdU, M MBndU, superscript 1 2'-OMe, C3 spacer, Heg linkers, 5'-amine, Table 20 gives 3.74E-11) was 0.027 nM.
